The chains are these.
B1: Ferredoxin--NADP reductase (Anabaena sp. (strain PCC 7119)), P21890 (parent)
chain: MSNQGAFDGAANVESGSRVFVYEVVGMRQNEETDQTNYPIRKSGSVFIRVPYNRMNQEMQRITRLGGKIVTIQTVSALQQLNGRTTIATVTDASSEIAKSEGNGKATPVKTDSGAKAFAKPPAEEQLKKKDNKGNTMTQAKAKHADVPVNLYRPNAPFIGKVISNEPLVKEGGIGIVQHIKFDLTGGNLKYIEGQSIGIIPPGVDKNGKPEKLRLYSIASTRHGDDVDDKTISLCVRQLEYKHPESGETVYGVCSTYLTHIEPGSEVKITGPVGKEMLLPDDPEANVIMLATGTGIAPMRTYLWRMFKDAERAANPEYQFKGFSWLVFGVPTTPNILYKEELEEIQQKYPDNFRLTYAISREQKNPQGGRMYIQDRVAEHADELWQLIKNQKTHTYICGLRGMEEGIDAALSAAAAKEGVTWSDYQKDLKKAGRWHVETY
B2: Ferredoxin--NADP reductase, leaf isozyme, chloroplastic (Pisum sativum (Garden pea)), P10933 (parent)
chain: MAAAVTAAVSLPYSNSTSLPIRTSIVAPERLVFKKVSLNNVSISGRVGTIRAQVTTEAPAKVVKHSKKQDENIVVNKFKPKEPYVGRCLLNTKITGDDAPGETWHMVFSTEGEVPYREGQSIGIVPDGIDKNGKPHKLRLYSIASSAIGDFGDSKTVSLCVKRLVYTNDAGEVVKGVCSNFLCDLKPGSEVKITGPVGKEMLMPKDPNATVIMLGTGTGIAPFRSFLWKMFFEKHEDYQFNGLAWLFLGVPTSSSLLYKEEFEKMKEKAPENFRLDFAVSREQVNDKGEKMYIQTRMAQYAEELWELLKKDNTFVYMCGLKGMEKGIDDIMVSLAAKDGIDWIEYKRTLKKAEQWNVEVY

Variants of B1 are the subject of the first test. As to conditions: with fer1_nosso petF.
For the variant Y440F, the “effect of a mutation on the interaction” value is listed as “increasing interaction”.

Variants of B1 are the subject of the next test. Conditions: with fer1_nosso petF. The source holds these as a separate data set.
For Y440W, the “effect of a mutation on the interaction” value is on record as “increasing interaction”.
Still for that read-out and setting: then Y440S, with “increasing interaction”.

Variants of B2 are the subject of another test. Conditions: with fer1_pea PETF.
For the variant Y360W, the “effect of a mutation on the interaction” value is on record as “increasing interaction”.
Same read-out and setting: then Y360S, with “increasing interaction”.

The values are drawn from IntAct's records for PubMed 15147197.
